Experimental data taken from paper PMC7857584.

What was measured:
MLA10-cLUC (barley) = MLA10-cLUC (barley) (UniProt Q6WWJ4)

AVRA10-nLUC (natural protein)
reduction of relative LUC activity (proxy for cell death) in barley protoplasts co-expressing AVRa10 and Mla22Lrr10, against the empty vector (% reduction of relative LUC activity) (MLA22LRR10-cLUC (barley)): 40
LUC activity (proxy for cell viability) in barley protoplasts co-expressing Mla10 and AVRa10, against Mla10 with AVRa22 (% lower LUC activity) (MLA10-cLUC (barley)): 50
